Patent publication US20110085970A1 (published 2011)

T1: human O8E (B7-H4) expressed on cells (human, UniProt Q7Z7D3 25-282)
T1 construct: Full length O8E on transfected HEK, CHO and SKOV3 cells, or endogenous on SKBR3 and ZR-75 cells and in human tumour biopsies; also called B7S1; B7x
T1 sequence: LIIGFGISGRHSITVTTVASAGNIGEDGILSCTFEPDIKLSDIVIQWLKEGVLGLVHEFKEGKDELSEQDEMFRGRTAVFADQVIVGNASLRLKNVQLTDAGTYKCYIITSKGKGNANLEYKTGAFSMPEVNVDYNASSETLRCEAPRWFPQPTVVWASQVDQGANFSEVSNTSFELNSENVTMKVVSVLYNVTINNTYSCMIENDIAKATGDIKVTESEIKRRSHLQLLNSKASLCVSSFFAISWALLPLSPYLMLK

T2: Recombinant Penta-B7H4 protein with a C-9 tag (human, UniProt Q7Z7D3 25-259)
T2 construct: also called Penta-O8E; Penta-B7H4-C9; not shown: 'Penta' part and C-9 tag
T2 sequence: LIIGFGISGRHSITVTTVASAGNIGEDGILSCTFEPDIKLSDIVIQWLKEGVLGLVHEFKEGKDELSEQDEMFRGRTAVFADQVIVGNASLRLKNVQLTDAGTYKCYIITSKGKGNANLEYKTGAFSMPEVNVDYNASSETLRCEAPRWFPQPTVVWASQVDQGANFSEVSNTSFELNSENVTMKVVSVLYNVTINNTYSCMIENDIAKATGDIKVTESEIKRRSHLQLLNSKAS


What was measured:
[1] = molecular target: T1, human O8E (B7-H4) expressed on cells; experiment: titration of labelled antibody on O8E-transfected cells (Scatchard set-up), sigmoidal dose response fit
Procedure: HEK cells were transfected with full length O8E using standard techniques and grown in RPMI media containing 10% fetal bovine serum (FBS). […] Millipore plates (MAFB NOB) were coated with 1% nonfat dry milk in water and stored a 4° C. overnight. The plates were washed three times with 0.2 ml of binding buffer. Fifty microliters of buffer alone was added to the maximum binding wells (total binding). Twenty-five microliters of buffer alone was added to the control wells (non-specific binding). Varying concentration of ¹²⁵I-anti-O8E antibody was added to all wells in a volume of 25 μl. (In some cases FITC labeled antibodies were used for the titration since unlabeled material was not available, binding may be compromised in these instances.) Varying concentrations of unlabeled antibody at 100 fold excess was added in a volume of 25 μl to control wells and 25 μl of O8E transfected CHO cells (2×10⁶ cells/ml) in binding buffer were added to all wells. The plates were incubated for 2 hours at 200 RPM on a shaker at 4° C. At the completion of the incubation the Millipore plates were washed three times with 0.2 ml of cold wash buffer (24 mM Tris pH 7.2, 500 mM NaCl, 2.7 mM KCl, 2 mM Glucose, 1 mM CaCl₂, 1 mM MgCl₂, 0.1% BSA.). The filters were removed and counted in a gamma counter. […]

[2] = molecular target: T2, Recombinant Penta-B7H4 protein with a …; experiment: ELISA: anti-mouse Fc coat, monoclonal anti-C9 at 0.6 ug/ml, Penta-B7H4 titrated (varied component), human antibody fixed at 1 ug/ml
[3] = molecular target: T1, human O8E (B7-H4) expressed on cells; experiment: titration of labelled antibody on O8E-transfected cells (Scatchard set-up), sigmoidal dose response fit; BOTTOM and TOP fixed for incomplete curve

Binder | EC50 [1] [nM] | EC50 (read off the curve) [2] [µg/mL] | EC50 [3] [nM]
13D12 human monoclonal antibody (anti-O8E / anti-B7-H4) (antibody, V domains shown, Hybridoma-derived fully human IgG with a kappa light chain (VK A27); also called 13D12.G10) VH: QVQLQQWGAGLLKPSETLSLTCAVYGGSFSGYYWSWIRQPPGKGLEWIGKINHSGSTNYNPSLKSRVTISVDTSKNQFSLKLNSVTAADTAVYYCARELRYFENYYYGMDVWGQGTTVTVSS VL: not shown | 0.746 |  | 
12E1 human monoclonal antibody (anti-O8E / anti-B7-H4) (antibody, V domains shown, Hybridoma-derived fully human IgG with a kappa light chain (VK L6/JK1); also called 12E1.G9) VH: EVQLVESGGGLVQPGRSLRLSCVASGFTFDDYAMHWVRQAPGKGLEWVSGISWNSGSIGYADSVKGRFTISRDNAKNSLYLQMNSLRAEDTALYYCTKALYGSGSSDFYYYGMDVWGQGTTVAVSS VL: EIVLTQSPATLSLSPGERATLSCRASQSVSSYLAWYQQKPGQAPRLLIYDASNRATGIPARFSGSGSGTDFTLTISSLEPEDFAVYYCQQRRTFGQGTKVEIK |  | ~0.05 | ~19.8
1G11 human monoclonal antibody (anti-O8E / anti-B7-H4) (antibody, V domains shown, Hybridoma-derived fully human IgG with a kappa light chain (VK A27); also called 1G11.H11-FITC; 1G11.H1) VH: QVQLQQWGAGLLKPSETLSLTCAVYGGSFSDYFWTWIRQPPGKGLEWIGEINHSGTTNYNPSLKSRVTISADTSKNQFSLRLSSVTAADTAVYYCARLSSWSNWAFEYWGQGTLVTVSS VL: EIVLTQFPGTLSLSPGERATLSCRASQSVSSTYLAWYQQKPGQAPRVLIYGASRRATGIPDRFSGSGSGTDFTLTISRLEPEDFAVYYCQQYGSSPLTFGGGTKVEIK | 1.69 |  | 
